# Source: US20060233785A1, “Immunointeractive molecules and uses thereof” (priority 2001, published 2006)
# Assays:
# [1] = system: IgE binding to rHev b 5; assay: Non-specific inhibition assay: IgE binding to rHev b 5; set-up: species or system human; conditions: serum of latex-allergic, Hev b 5 positive subject (data not shown)
# Experimental: To confirm the lack of IgE reactivity of mutant rHev b 6, inhibition ELISA were performed. In these assays, IgE binding to rHev b 6 was inhibited by preincubation of sera from latex allergic, Hev b 6 reactive subjects with either rHev b 6 or mutant rHev b 6 over a range of concentrations. To determine the level of non-specific inhibition inherent in such an assay, an initial non-specific inhibition assay was performed. The serum of a latex-allergic, Hev b 5 positive subject was incubated with rHev b 6 and mutant rHev b 6 and then the ability of IgE from this serum to bind rHev b 5 in an ELISA was measured. When this assay was undertaken, binding of IgE to rHev b5 was inhibited at a maximum of 20% by rHev b 6 and mutant rHev b 6 (data not shown).
# [2] = system: Hev b 6-specific mAb 1A5.4; assay: Western blotting of rHev b 6 forms with Hev b 6-specific mAb (Example 8); type: binding, mouse
# Experimental: FIG. 6 is an image of sulphonation abolishing the IgE reactivity of rHev b 6. rHev b 6 (A) and sulphonated rHev b 6 (B) were resolved by 16% SDS-PAGE under non-reducing conditions. Gels were either stained with Coomassie Brilliant Blue (1) or transferred to nitrocellulose. Strips with transferred protein were incubated with the Hev b 6-specific mAb 1A5.4 and binding detected (2). Strips with transferred protein were also incubated with sera from two latex allergic, Hev b 6 sensitized subjects (3 and 4) and one non-latex-allergic, atopic subject (5). The presence or absence of IgE binding was then detected. […] Plates were coated with rHev b 6 and sulphonated rHev b 6 and the presence or absence of IgE-binding detected. As a positive control the Hev b 6-specific mAb 1A5 was used. NB indicates no binding of IgE was detected.
# Four μg of rHev b 6 or sulphonated rHev b 6 were separated on 16% sodium dodecyl sulphate (SDS) polyacrylamide gels with 4% stacking gel. Electrophoresis was performed at 125V for 2 h on a Novex Xcell II Mini-Cell system (Novex, CA, USA). Proteins were visualized with Coomassie Brilliant Blue R-250 (Sigma). The separated proteins were electrophoretically transferred to nitro-cellulose membranes (BA 0.45μ, Schleicher and Schuell, Dassel, Germany) at 25V for 1 hr in transfer buffer. Membranes were blocked for 1 h at RT in 10% skim milk powder (SMP) in PBS, washed once in 0.05% Tween20/PBS and twice in PBS. Washed membranes were incubated for 1 hour at RT with either culture supernatant containing the Hev b 6-specific mAb 1A5.4, diluted 1 in 100 in 1% SMP/PBS or human serum, diluted 1 in 5 in 1% SMP/PBS. For mAb detection membranes were washed as above and incubated for 1 h at RT with goat HRP-conjugated anti-mouse Ig (Silenus), diluted 1 in 2000 in 1% SMP/PBS. For IgE detection, membranes were incubated for 1 h at RT with rabbit anti-human IgE (Dako, Denmark) at 1 in 1000 dilution, followed by swine anti-rabbit IgG-HRP conjugate (Promega) at 1 in 1000 dilution. After washing, the binding of 1A5.4 mAb and patient serum IgE to rHev b 6 was detected using hydrogen peroxide/diaminobenzidine solution.
# [3] = type: physicochemical
# Text: Recombinant Hev b 6 (rHev b 6): The cDNA encoding Hev b 6 was cloned from latex RNA (Beezhold, unpublished). The deduced amino acid sequence of this clone is identical to that of the Hev b 6 clone pDHPROH 6 in Rozynek P et al., 1998, Clinical and Experimental Allergy 28:1418-1426 and differed at amino acid 126 (Thr versus Ala) from the deduced amino acid sequence of the Hev b 6 clone pDHPROH 1-2 (Genbank entry AJ003196.1). It differs at amino acids 109 (Pro versus Ser) and 161 (Leu versus Ile) from the deduced amino acid sequence of the Hev b 6 clone HEV1 (Genbank entry M36986.1), isolated by Broekaert W, Lee H, Kush A, Chua N-H, Raikhel N. Wound-induced accumulation of mRNA containing a hevein sequence in laticifers of rubber tree (Hevea brasiliensis). Proc Natl Acad Sci USA 1990; 87:7633-7637. The Hev b 6 cDNA was subcloned into the pPROEX-Hta vector (Invitrogen, CA, USA) by the polymerase chain reaction (PCR) following our standardised methods (Sutherland et al., 2002, supra). Primers HEVB6F (5′-[…]-3′) (SEQ ID NO:22) and HEVB6R (5′-[…]-3′) (SEQ ID NO:23) were used for the PCR. The plasmid construct was transformed into E. coli strain BL21-CodonPlus® (DE3)-RIL competent cells (Stratagene, CA, USA) by the heat shock procedure (Sambruk et al., 1989, supra). […]
# [4] = reducing SDS-PAGE (data not shown)
molecule,measurement,setting,value
"rHev b 6: recombinant Hev b 6 (prohevein) expressed in E. coli from pPROEX-HTa with 6-His tag (protein, left off: small tags and cut ends, recombinant Hev b 6 (prohevein) expressed in E. coli from pPROEX-HTa with 6-His tag) EQCGRQAGGKLCPNNLCCSQWGWCGSTDEYCSPDHNCQSNCKDSGEGVGGGSASNVLATYHLYNSQDHGWDLNAASAYCSTWDANKPYSWRSKYGWTAFCGPVGAHGQSSCGKCLSVTNTGTGAKTTVRIVDQCSNGGLDLDVNVFRQLDTDGKGYERGHITVNYQFVDCGDSFNPLFSVMKSSVIN",maximum inhibition of IgE binding to rHev b5 (non-specific),[1],20%
same,Hev b 6-specific mAb reactivity in Western blotting,[2]; non-reducing SDS-PAGE,reactive
same,Hev b 6-specific mAb reactivity in Western blotting,[2]; [4],reactive
same,solubility,[3],insoluble
"sulphonated rHev b 6: purified rHev b 6 sulphonated in sulphonation buffer to improve solubility (protein, left off: small tags and cut ends) EQCGRQAGGKLCPNNLCCSQWGWCGSTDEYCSPDHNCQSNCKDSGEGVGGGSASNVLATYHLYNSQDHGWDLNAASAYCSTWDANKPYSWRSKYGWTAFCGPVGAHGQSSCGKCLSVTNTGTGAKTTVRIVDQCSNGGLDLDVNVFRQLDTDGKGYERGHITVNYQFVDCGDSFNPLFSVMKSSVIN",Hev b 6-specific mAb reactivity in Western blotting,[2]; non-reducing SDS-PAGE,reactive
same,Hev b 6-specific mAb reactivity in Western blotting,[2]; [4],reactive
same,solubility,[3],increased markedly
"mutant rHev b 6: rHev b 6 with cysteine to alanine substitution at amino acid 3 of the mature protein (protein, left off: small tags and cut ends, rHev b 6 with cysteine to alanine substitution at amino acid 3 of the mature protein) EQAGRQAGGKLCPNNLCCSQWGWCGSTDEYCSPDHNCQSNCKDSGEGVGGGSASNVLATYHLYNSQDHGWDLNAASAYCSTWDANKPYSWRSKYGWTAFCGPVGAHGQSSCGKCLSVTNTGTGAKTTVRIVDQCSNGGLDLDVNVFRQLDTDGKGYERGHITVNYQFVDCGDSFNPLFSVMKSSVIN",maximum inhibition of IgE binding to rHev b5 (non-specific),[1],20%
